According to patent US20210130436A1:

Experiments:
[1] = target: CD28 (human) (UniProt P10747); assay: cell-based or functional assay
[2] = target: PD-L1 (human) (UniProt Q9NZQ7); assay: cell-based or functional assay
Chain of PD-L1 (human) (Q9NZQ7 19-290): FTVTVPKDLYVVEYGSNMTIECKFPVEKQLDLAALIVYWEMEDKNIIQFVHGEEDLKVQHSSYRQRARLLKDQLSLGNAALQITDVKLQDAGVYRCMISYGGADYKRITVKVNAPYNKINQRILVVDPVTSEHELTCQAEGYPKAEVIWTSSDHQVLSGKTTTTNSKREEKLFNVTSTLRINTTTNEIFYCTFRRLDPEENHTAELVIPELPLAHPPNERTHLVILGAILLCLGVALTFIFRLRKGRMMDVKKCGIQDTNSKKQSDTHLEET

Row | Substance | IL-2 release, primary T cells; K562/OKT3 (No PD-L1); 1 nM [1] | IL-2 release, primary T cells; K562/OKT3 (No PD-L1); 10 nM [1] | IL-2 release, primary T cells; K562/OKT3 (No PD-L1); 100 nM [1] | RLU, Jurkat/IL2 reporter; K562/OKT3 aAPC, FcR Dependent Cross-Linking (No PD-L1); 0.6 nM [1] [RLU] | RLU, Jurkat/IL2 reporter; K562/OKT3 aAPC, FcR Dependent Cross-Linking (No PD-L1); 1.9 nM [1] [RLU] | RLU, Jurkat/IL2 reporter; K562/OKT3 aAPC, FcR Dependent Cross-Linking (No PD-L1); 5.6 nM [1] [RLU] | RLU, Jurkat/IL2 reporter; K562/OKT3 aAPC, FcR Dependent Cross-Linking (No PD-L1); 16.7 nM [1] [RLU] | RLU, Jurkat/IL2 reporter; K562/OKT3 aAPC, FcR Dependent Cross-Linking (No PD-L1); 50 nM [1] [RLU] | RLU, Jurkat/IL2 reporter; K562/OKT3/PD-L1 aAPC, Combination of FcR and/or PD-L1 Dependent Cross-Linking; 0.6 nM [2] [RLU] | RLU, Jurkat/IL2 reporter; K562/OKT3/PD-L1 aAPC, Combination of FcR and/or PD-L1 Dependent Cross-Linking; 1.9 nM [2] [RLU] | RLU, Jurkat/IL2 reporter; K562/OKT3/PD-L1 aAPC, Combination of FcR and/or PD-L1 Dependent Cross-Linking; 5.6 nM [2] [RLU] | RLU, Jurkat/IL2 reporter; K562/OKT3/PD-L1 aAPC, Combination of FcR and/or PD-L1 Dependent Cross-Linking; 16.7 nM [2] [RLU] | RLU, Jurkat/IL2 reporter; K562/OKT3/PD-L1 aAPC, Combination of FcR and/or PD-L1 Dependent Cross-Linking; 50 nM [2] [RLU] | IL-2-luciferase RLU, Jurkat + CHO/OKT3/PD-L1 aAPC, 0.6 nM [1] [RLU] | IL-2-luciferase RLU, Jurkat + CHO/OKT3/PD-L1 aAPC, 1.9 nM [1] [RLU] | IL-2-luciferase RLU, Jurkat + CHO/OKT3/PD-L1 aAPC, 5.6 nM [1] [RLU] | IL-2-luciferase RLU, Jurkat + CHO/OKT3/PD-L1 aAPC, 16.7 nM [1] [RLU] | IL-2-luciferase RLU, Jurkat + CHO/OKT3 aAPC (no PD-L1), 5.6 nM [1] [RLU] | IL-2-luciferase RLU, Jurkat + CHO/OKT3 aAPC (no PD-L1), 16.7 nM [1] [RLU] | IL-2-luciferase RLU, Jurkat + CHO/OKT3 aAPC (no PD-L1), 50 nM [1] [RLU] | also measured
1 | variant CD80 IgV-Fc (effector) E35D (Fc fusion) | 7600 | 7990 | 8380 | 1400 | 1330 | 1300 | 1320 | 1200 | 920 | 1110 | 1400 | 1760 | 2270 |  |  |  |  |  |  |  | 
2 | variant CD80 IgV-Fc (effector) E35D/D46V/L85Q (Fc fusion) | 14300 | 21500 | 25400 | 1880 | 2720 | 4400 | 6020 | 7020 | 1420 | 2430 | 3310 | 3640 | 4130 |  |  |  |  |  |  |  | 
3 | variant CD80 IgV-Fc (effector) E35D/M43L/L70M (Fc fusion) | 8020 | 7710 | 10500 | 1350 | 1340 | 1400 | 1340 | 1570 | 1020 | 1250 | 1620 | 2050 | 2780 |  |  |  |  |  |  |  | 
4 | variant CD80 IgV-Fc (effector) E35D/M47I (Fc fusion) | 11100 | 21600 | 27200 | 1780 | 2130 | 3650 | 5790 | 7140 | 2830 | 3600 | 4700 | 5320 | 5700 |  |  |  |  |  |  |  | 
5 | variant CD80 IgV-Fc (effector) E35D/M47I/L70M (Fc fusion) | 15700 | 26000 | 25300 | 1610 | 2520 | 4230 | 5370 | 5780 | 2240 | 2690 | 3650 | 3910 | 3870 |  |  |  |  |  |  |  | 
6 | variant CD80 IgV-Fc (effector) E35D/M47L (Fc fusion) | 14600 | 23600 | 26800 | 2120 | 3040 | 5620 | 7740 | 8680 | 2780 | 3850 | 4730 | 5410 | 5040 |  |  |  |  |  |  |  | 
7 | variant CD80 IgV-Fc (effector) E35G/K54E/A71D/L72P (Fc fusion) | 7030 | 7900 |  | 1340 | 1370 | 1380 | 1430 | 1510 | 689 | 732 | 735 | 701 | 805 |  |  |  |  |  |  |  | 
8 | variant CD80 IgV-Fc (effector) H18Y/A26T/E35D/A71D/L85Q (Fc fusion) |  | 20500 | 20600 | 2080 | 2810 | 4550 | 6960 | 8750 | 1160 | 1820 | 3120 | 4330 | 5220 |  |  |  |  |  |  |  | 
9 | variant CD80 IgV-Fc (inert) A26E/E35D/M47L/L85Q (Fc fusion) |  |  |  |  |  |  |  |  |  |  |  |  |  | 509 | 618 | 886 | 1380 | 458 | 415 | 432 | IL-2-luciferase RLU, Jurkat + CHO/OKT3/PD-L1 aAPC, 50 nM [1]: 2000 RLU; IL-2 release, primary T cells; K562/OKT3/PD-L1; 1 nM [2]: 72; IL-2 release, primary T cells; K562/OKT3/PD-L1; 10 nM [2]: 268; IL-2 release, primary T cells; K562/OKT3/PD-L1; 100 nM [2]: 1460
10 | variant CD80 IgV-Fc (inert) E23G/A26S/E35D/T62N/A71D/L72V/L85M (Fc fusion) |  |  |  |  |  |  |  |  |  |  |  |  |  | 524 |  | 659 | 689 | 566 | 560 | 606 | IL-2-luciferase RLU, Jurkat + CHO/OKT3/PD-L1 aAPC, 50 nM [1]: 695 RLU; IL-2 release, primary T cells; K562/OKT3/PD-L1; 100 nM [2]: 102
11 | variant CD80 IgV-Fc (inert) E35D (Fc fusion) |  |  |  |  |  |  |  |  |  |  |  |  |  | 456 | 465 | 625 | 995 | 412 | 480 | 448 | IL-2-luciferase RLU, Jurkat + CHO/OKT3/PD-L1 aAPC, 50 nM [1]: 1610 RLU; IL-2 release, primary T cells; K562/OKT3/PD-L1; 10 nM [2]: 210; IL-2 release, primary T cells; K562/OKT3/PD-L1; 100 nM [2]: 2740
12 | variant CD80 IgV-Fc (inert) E35D/D46V/L85Q (Fc fusion) |  |  |  |  |  |  |  |  |  |  |  |  |  | 611 | 1000 | 1490 |  | 511 | 554 | 720 | IL-2 release, primary T cells; K562/OKT3/PD-L1; 10 nM [2]: 102; IL-2 release, primary T cells; K562/OKT3/PD-L1; 100 nM [2]: 1430
13 | variant CD80 IgV-Fc (inert) E35D/M43L/L70M (Fc fusion) |  |  |  |  |  |  |  |  |  |  |  |  |  | 479 | 525 | 683 | 1070 | 396 | 439 | 515 | IL-2 release, primary T cells; K562/OKT3/PD-L1; 10 nM [2]: 52
14 | variant CD80 IgV-Fc (inert) E35D/M47I (Fc fusion) |  |  |  |  |  |  |  |  |  |  |  |  |  | 1050 | 1730 | 2790 | 3670 | 637 | 710 | 894 | IL-2-luciferase RLU, Jurkat + CHO/OKT3/PD-L1 aAPC, 50 nM [1]: 3780 RLU; IL-2 release, primary T cells; K562/OKT3/PD-L1; 1 nM [2]: 244; IL-2 release, primary T cells; K562/OKT3/PD-L1; 10 nM [2]: 3430; IL-2 release, primary T cells; K562/OKT3/PD-L1; 100 nM [2]: 8310
